The target in assay [1] is T1, human TIGIT-Fc (human, UniProt Q495A1 22-141, limits assumed).
T1 construct: not shown: Fc; not described
T1 sequence (looked up): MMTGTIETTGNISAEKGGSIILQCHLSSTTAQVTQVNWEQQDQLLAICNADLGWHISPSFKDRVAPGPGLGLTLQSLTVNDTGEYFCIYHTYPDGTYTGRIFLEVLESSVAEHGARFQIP
As to the kind of experiment: CD155 competition ELISA, titration. The procedure: (§1) TIGIT/CD155 inhibition of VHH-Fcs were assessed using an ELISA assay (Table 10B). Briefly, human TIGIT-Fc was coated on a plate & then incubated with VHH-Fcs and human CD155-biotin. Bound CD155-biotin was detected using a streptavidin-HRP conjugate visualized with TMB. Strong inhibitors from the single point screen were titrated to determine EC50 (Table 10C).
(ELISA stands for enzyme-linked immunosorbent assay.)

Assay [2] has as its target T1, human TIGIT-Fc. As to the kind of experiment: CD155 competition ELISA, single point. The procedure: as §1
In another assay the target is T2, TIGIT (UniProt Q495A1 22-141, limits assumed).
T2 construct: also called T cell immunoreceptor with Ig and ITIM domains; hTIGIT
T2 sequence (looked up): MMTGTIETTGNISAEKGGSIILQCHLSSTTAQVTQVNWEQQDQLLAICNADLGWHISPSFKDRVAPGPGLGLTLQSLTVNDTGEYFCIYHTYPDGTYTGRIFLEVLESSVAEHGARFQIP
As to the kind of experiment: SPR, VHH-V5-His. On the technique in general: SPR reads the build-up and loss of mass on a sensor chip optically.

B1: TIGIT-SC57 (Fc fusion)
VHH: EVQLVESGGGLVQPGGSLRLSCAASGNTFSGGFMGWFRQAPGKEREWVASVLRGGYTWYADSVKGRFTISADNSKNTAYLQMNSLKPEDTAVYYCTTYRGWGQGTLVTVSS
notes: VHH-Fc
Broadly, the EC50 is the concentration needed to bring the measured effect to its halfway point. For the molecule B1, in the assay with human TIGIT-Fc [1], the EC50 amounted to 1.53 nM. Moreover, in the assay with human TIGIT-Fc [2], the “OD (450 nm)” value turned out to be 0.0807 OD.

B2: TIGIT-SC38 (Fc fusion)
VHH: EVQLVESGGGLVQPGGSLRLSCAASGFTFSEYPMGWFRQAPGKEREFVAVVNWNGDSTYYADSVKGRFTISADNSKNTAYLQMNSLKPEDTAVYYCARGSDWYRYWGQGTLVTVSS
notes: VHH-Fc
In the assay with human TIGIT-Fc [1], B2 showed an EC50 of 0.181 nM. Also, in the assay with human TIGIT-Fc [2], the “OD (450 nm)” value turned out to be 0.143 OD.

B3: TIGIT-SC51 (Fc fusion)
VHH: EVQLVESGGGLVQPGGSLRLSCAASGRTEANYAMGWFRQAPGKEREFVAAISWDGGATAYADSVKGRFTISADNSKNTAYLQMNSLKPEDTAVYYCGDYEGHWGQGTLVTVSS
notes: VHH-Fc
Molecule B3 registered a concentration for a half-maximal effect (EC50) in the assay with human TIGIT-Fc [1] of 3.47 nM. In addition, the “OD (450 nm)” value in the assay with human TIGIT-Fc [2] came to 0.129 OD.

B4: TIGIT-SC68 (Fc fusion)
VHH: EVQLVESGGGLVQPGGSLRLSCAASGHTFRGYAMGWFRQAPGKEREAVAAISWSGDNTYYADSVKGRFTISADNSKNTAYLQMNSLKPEDTAVYYCGDYEGHWGQGTLVTVSS
notes: VHH-Fc
Molecule B4 yielded an EC50 with human TIGIT-Fc [1] of 6.52 nM. Besides, the “OD (450 nm)” value with human TIGIT-Fc [2] was 0.607 OD.

B5: TIGIT-SC36 (Fc fusion)
VHH: EVQLVESGGGLVQPGGSLRLSCAASGNTFNFNVMGWFRQAPGKEREAVASIWRSGGNTYYADSVKGRFTISADNSKNTAYLQMNSLKPEDTAVYYCARDLEWRPYYMDVWGQGTLVTVSS
notes: VHH-Fc
In turn, B5 gave an EC50 with human TIGIT-Fc [1] of 2.08 nM. In the assay with human TIGIT-Fc [2], the “OD (450 nm)” value is 0.144 OD.

B6: TIGIT-31-56 (VHH-V5-His) (VHH)
VHH: EVQLVESGGGLVQPGGSLRLSCAASGRIFRRNSMGWFRQAPGKEREFVAVITRSGGGEVTTYADSVKGRFTINADNSKNTAYLQMNSLKPEDTAVYYCAMSSVTRGSSDWGQGTLVTVST
notes: not shown: V5-His tag
As usually defined, the Kd is the constant that tells how readily two partners part at equilibrium. The low end stands for tighter binding, the high end for weaker binding. In general, koff refers to a measure of how fast the partners let go of each other. Low values mean a long-lived complex, high ones a short-lived complex. The term kon denotes the rate constant with which the complex forms. With B6, in the assay with TIGIT, the affinity, expressed as Kd, was 382 nM; the RU came to 301 RU; the koff turned out to be 0.01 s⁻¹; the kon stood at 30000 M⁻¹ s⁻¹.

B7: TIGIT-SC31 (Fc fusion)
VHH: EVQLVESGGGLVQPGGSLRLSCAASGRAFESYAMGWFRQAPGKERELVATIGWSGTDYADSVKGRFTISADNSKNTAYLQMNSLKPEDTAVYYCAKGYTSGLSDWGQGTLVTVSS
notes: VHH-Fc
For the molecule B7, the EC50 with human TIGIT-Fc [1] is 1.78 nM. In addition, the “OD (450 nm)” value in the assay with human TIGIT-Fc [2] worked out at 0.125 OD.

B8: TIGIT-31-34 (VHH-V5-His) (VHH)
VHH: EVQLVESGGGLVQPGGSLRLSCAASGRSRYGMGWFRQAPGKEREFVSAISWSGISTYYADSVKGRFTISADNSKNTAYLQMNSLKPEDTAVYYCAATQWGSSGWKQARWYDWGQGTLVTVSS
notes: not shown: V5-His tag
On to B8, for which, in the assay with TIGIT, binding was characterised by a dissociation constant (Kd) of 473000 nM, the RU came out at 25300 RU, the koff stood at 0.2 s⁻¹ and the kon turned out to be 400 M⁻¹ s⁻¹.

B9: TIGIT-31-20 (VHH-V5-His) (VHH)
VHH: EVQLVESGGGLVQPGGSLRLSCAASGFTFSGNWMGWFRQAPGKEREFVAGILSDGRELYADSVKGRFTISADNSKNTAYLQMNSLKPEDTAVYYCAADVWYGSTWRNWGQGTLVTVSS
notes: not shown: V5-His tag
In the case of B9, in the assay with TIGIT, the equilibrium dissociation constant (Kd) worked out at 281 nM, the RU turned out to be 45 RU, the koff was 0.004 s⁻¹ and the kon stood at 10000 M⁻¹ s⁻¹.

B10: TIGIT-31-35 (VHH-V5-His) (VHH)
VHH: EVQLVESGGGLVQPGGSLRLSCAASGFTFSTSWMGWFRQAPGKERELVASITSGGTTNYADSVKGRFTISADNSKNTAYLQMNSLKPEDTAVYYCAADVWYGSTWRNWGQGTLVTVSS
notes: not shown: V5-His tag
Take B10: in the assay with TIGIT, the dissociation constant (Kd) turned out to be 346 nM, the RU worked out at 78 RU, the koff came out at 0.01 s⁻¹ and the kon was 30000 M⁻¹ s⁻¹.

B11: TIGIT-31-26 (VHH-V5-His) (VHH)
VHH: EVQLVESGGGLVQPGGSLRLSCAASGFTFDRSWMGWFRQAPGKERELVAAITSGGSTYYADSVKGRFTISADNSKNTAYLQMNSLKPEDTAVYYCAADVWYGSTWRNWGQGTLVTVSS
notes: not shown: V5-His tag
Turning to B11, in the assay with TIGIT, binding was put at a Kd of 158 nM, the RU was determined as 59 RU, the koff was 0.003 s⁻¹ and the on-rate (kon) amounted to 20000 M⁻¹ s⁻¹.

B12: TIGIT-31-47 (VHH-V5-His) (VHH)
VHH: EVQLVESGGGLVQPGGSLRLSCAASGFTFSGNWMGWFRQAPGKEREWVVGISSGGTPHYADSVKGRFTISADNSKNTAYLQMNSLKPEDTAVYYCAADVWYGSTWRNWGQGTLVTVSS
notes: not shown: V5-His tag
In the assay with TIGIT, B12 yielded a Kd of 186 nM, an RU of 119 RU, a koff of 0.004 s⁻¹ and a kon of 20000 M⁻¹ s⁻¹.

B13: TIGIT-31-32 (VHH-V5-His) (VHH)
VHH: EVQLVESGGGLVQPGGSLRLSCAASGFTFSTSWMGWFRQAPGKERELVAAMTSGGGTNYADSVKGRFTISADNSKNTAYLQMNSLKPEDTAVYYCAADVWYGSTWRNWGQGTLVTVSS
notes: not shown: V5-His tag
Take B13: in the assay with TIGIT, the dissociation constant (Kd) turned out to be 102 nM, the RU stood at 145 RU, the koff was determined as 0.006 s⁻¹ and the kon amounted to 60000 M⁻¹ s⁻¹.

B14: TIGIT-SC46 (Fc fusion)
VHH: EVQLVESGGGLVQPGGSLRLSCAASGRTFSNYVMGWFRQAPGKERELVASISSFGSTYYADSVKGRFTISADNSKNTAYLQMNSLKPEDTAVYYCARSGGFLSDWGQGTLVTVSS
notes: VHH-Fc
With B14, a half-maximal effect with human TIGIT-Fc [1] (EC50) was put at 1.37 nM. Further, in the assay with human TIGIT-Fc [2], the “OD (450 nm)” value is 0.111 OD.

B15: TIGIT-SC82 (Fc fusion)
VHH: EVQLVESGGGLVQPGGSLRLSCAASGSMSSNYAMGWFRQAPGKEREFVAAIDWSGGNTYYADSVKGRFTISADNSKNTAYLQMNSLKPEDTAVYYCAKWFYYGSGLYTLDVWGQGTLVTVSS
notes: VHH-Fc
On to B15, for which, in the assay with human TIGIT-Fc [1], it took 4.08 nM to reach a half-maximal effect (EC50). Moreover, the “OD (450 nm)” value in the assay with human TIGIT-Fc [2] came out at 0.25 OD.

B16: TIGIT-SC83 (Fc fusion)
VHH: EVQLVESGGGLVQPGGSLRLSCAASGRTFSDDAMGWFRQAPGKEREFVAAISRSGGNTYYADSVKGRFTISADNSKNTAYLQMNSLKPEDTAVYYCAKWFYYGSGLYTLDVWGQGTLVTVSS
notes: VHH-Fc
The molecule B16 displayed an EC50 with human TIGIT-Fc [1] of 4.36 nM. The “OD (450 nm)” value with human TIGIT-Fc [2] came out at 0.241 OD.

B17: TIGIT-SC65 (Fc fusion)
VHH: EVQLVESGGGLVQPGGSLRLSCAASGFTFGNYDMGWFRQAPGKEREFVAAITGSGRSTYYADSVKGRFTISADNSKNTAYLQMNSLKPEDTAVYYCARGRIAASGTKVYWYFDLWGQGTLVTVSS
notes: VHH-Fc
B17 returned an EC50 in the assay with human TIGIT-Fc [1] of 4.09 nM. Also, the “OD (450 nm)” value in the assay with human TIGIT-Fc [2] amounted to 0.0846 OD.

B18: TIGIT-SC67 (Fc fusion)
VHH: EVQLVESGGGLVQPGGSLRLSCAASGFTFDRSWMGWFRQAPGKEREWVSTIYSNGTPAYADSVKGRFTISADNSKNTAYLQMNSLKPEDTAVYYCARRGLPSYSYGMDVWGQGTLVTVSS
notes: VHH-Fc
B18: in the assay with human TIGIT-Fc [1], it took 1.23 nM to reach a half-maximal effect (EC50). Moreover, the “OD (450 nm)” value with human TIGIT-Fc [2] was 0.149 OD.

B19: TIGIT-SC64 (Fc fusion)
VHH: EVQLVESGGGLVQPGGSLRLSCAASGFAFSNFGMGWFRQAPGKERELVSAIGWSGASTYYADSVKGRFTISADNSKNTAYLQMNSLKPEDTAVYYCARRGRTIPFDYWGQGTLVTVSS
notes: VHH-Fc
For the molecule B19, the EC50 with human TIGIT-Fc [1] amounted to 9.58 nM. The “OD (450 nm)” value with human TIGIT-Fc [2] is 0.197 OD.

The record behind these values is patent US20260184782A1 (TWIST BIOSCIENCE, published 2026).
